In patent publication US11306156:
pKd: −log10 of the molar value. Values belong to the substance of their own block, whether it stands above or below them.

Assays:
[1] = biological target: tissue factor (TF) antigen (UniProt P13726); assay: SPR, against wild-type D3H44 Fab
[2] = biological target: tissue factor (TF) antigen (UniProt P13726); assay: SPR (ProteOn XPR36), Fab captured on anti-penta-His, TF injected, 1:1 fit
[3] = biological target: tissue factor (TF) antigen (UniProt P13726); assay: SPR (ProteOn), against wild-type D3H44 Fab; estimated value taken from the Fab differing only in L chain tag
[4] = biological target: tissue factor (TF) antigen (UniProt P13726); assay: SPR (ProteOn), Fab captured by anti-penta-His, TF as analyte, 1:1 fit; estimated value taken from the Fab differing only in L chain tag
[5] = biological target: tissue factor (TF) antigen (UniProt P13726); assay: SPR; log change of median KD against wild-type D3H44 Fab
[6] = biological target: tissue factor (TF) antigen (UniProt P13726); assay: SPR, Fab captured by anti-penta-His, TF injected, 1:1 fit
[7] = biological target: tissue factor (TF) antigen (UniProt P13726); assay: SPR, Fab captured on anti-penta-His, TF as analyte, 1:1 fit; batch C
[8] = biological target: tissue factor (TF) antigen (UniProt P13726); assay: SPR, Fab captured on anti-penta-His, TF as analyte; against wild-type D3H44 Fab; batch C
[9] = biological target: D3H44 light chain Q38R_S131K; assay: LCCA, SPR tag readout, L1:L2 DNA 1:3 normalized to 1:1; competitor m19
[10] = biological target: D3H44 light chain Q38E_Q124E_Q160E_T180E; assay: LCCA, SPR tag readout, L1:L2 DNA 1:3 normalized to 1:1; competitor m21
[11] = biological target: D3H44 light chain Q38R_S131K; assay: LCCA, SPR tag readout, L1:L2 DNA 1:9 normalized to 1:1; competitor m19
[12] = biological target: D3H44 light chain Q38E_Q124E_Q160E_T180E; assay: LCCA, SPR tag readout, L1:L2 DNA 1:9 normalized to 1:1; competitor m21
[13] = biological target: D3H44 light chain Q124E_L135W_Q160E_T180E; assay: LCCA, SPR tag readout, L1:L2 DNA 1:3 normalized to 1:1; competitor m23
[14] = biological target: D3H44 light chain F116A_Q124R_L135V_T178R; assay: LCCA, SPR tag readout, L1:L2 DNA 1:3 normalized to 1:1; competitor m24
[15] = biological target: D3H44 light chain F116A_Q124R_L135V; assay: as above
[16] = biological target: D3H44 light chain Q124E_L135W_Q160E_T180E; assay: LCCA, SPR tag readout, L1:L2 DNA 1:3 normalized to 1:1; competitor m25
[17] = biological target: D3H44 light chain Q124E_L135W_Q160E_T180E; assay: LCCA, SPR tag readout, L1:L2 DNA 1:9 normalized to 1:1; competitor m23
[18] = biological target: D3H44 light chain F116A_Q124R_L135V_T178R; assay: LCCA, SPR tag readout, L1:L2 DNA 1:9 normalized to 1:1; competitor m24
[19] = biological target: D3H44 light chain F116A_Q124R_L135V; assay: as above
[20] = biological target: D3H44 light chain Q124E_L135W_Q160E_T180E; assay: LCCA, SPR tag readout, L1:L2 DNA 1:9 normalized to 1:1; competitor m25
[21] = biological target: tissue factor (TF) antigen (UniProt P13726); assay: SPR (ProteOn XPR36): His-tagged Fab captured on anti-penta-His surface, TF as analyte, 1:1 fit; value estimated (*) from the Fab differing only in the L chain tag

Substance: H1L1 Fab heterodimer of LCCA Set # 9070 (D3H44 Fab; H1 F174G, L1 S131T_S176F_T178Y)
Change in median values of KD of h1l1 Fab heterodimer compared to wild type (-(log(KD design)-log(KD wt))) [1]: 0 | pKd [2]: 9.80

Substance: H1L1 Fab heterodimer of LCCA sets 9078, 9077 and 9076 (D3H44 Fab, H1 H172T_Q179K, L1 Q124E_N137K_Q160E_S174R_T180E)
Change in median values of KD of h1l1 Fab heterodimer compared to wild type (-(log(KD design)-log(KD wt))) [5]: 0.01 log units | pKd [6]: 9.82

Substance: D3H44 Fab heterodimer, H1 S186R / L1 Q124E_T178E_T180E (H1L1 Fab of LCCA Set # 9889 and 9890)
pKd [7]: 10.30 | change in median KD compared to wild type, -(log(KD design)-log(KD wt)) [8]: 0.49

Substance: D3H44 Fab heterodimer, H1L1 of LCCA set 9657 (H: L143E_K145T_Q179E; L: Q124R_T178K)
Change in KD with respect to wild type (-(log(KD design) - log(KD wt))) [3]: -0.08 | pKd [4]: 9.72

Substance: D3H44 Fab heterodimer, H1 S186K / L1 Q124E_T178E (H1L1 Fab of LCCA Set # 9850 and 9849)
pKd [7]: 9.82 | change in median KD compared to wild type, -(log(KD design)-log(KD wt)) [8]: 0.01

Substance: D3H44 Fab heavy chain Q39E_K145T_Q179E
H1L1:H1L2 normalized median ratio [9]: 93% | H1L1:H1L2 normalized median ratio [10]: 7% | H1L1:H1L2 normalized median ratio [11]: 90% | H1L1:H1L2 normalized median scalar value ln(r1/f1) [11]: 2.16 | H1L1:H1L2 normalized median ratio [12]: 10%

Substance: D3H44 Fab heavy chain A139G_Q179K_V190A
H1L1:H1L2 normalized median ratio [13]: 87% | H1L1:H1L2 normalized median scalar value ln(r1/f1) [13]: 1.88 | H1L1:H1L2 normalized median ratio [14]: 13% | H1L1:H1L2 normalized median ratio [15]: 15% | H1L1:H1L2 normalized median ratio [16]: 85% | H1L1:H1L2 normalized median scalar value ln(r1/f1) [16]: 1.71 | H1L1:H1L2 normalized median ratio [17]: 86% | H1L1:H1L2 normalized median scalar value ln(r1/f1) [17]: 1.85 | H1L1:H1L2 normalized median ratio [18]: 14% | H1L1:H1L2 normalized median ratio [19]: 9% | H1L1:H1L2 normalized median ratio [20]: 91% | H1L1:H1L2 normalized median scalar value ln(r1/f1) [20]: 2.31

Further lines, results first:

Change in KD with respect to wild type (-(log(KD design) - log(KD wt))) [3]: -0.28 | pKd [4]: 9.52
Substance: D3H44 Fab heterodimer, H1L1 of LCCA set 9683 (H: L143E_K145T_Q179E; L: T178R)

Change in median values of KD of h1l1 Fab heterodimer compared to wild type (-(log(KD design)-log(KD wt))) [1]: -0.28 | pKd [2]: 9.52
Substance: H1L1 Fab heterodimer of LCCA Set # 9569 (D3H44 Fab; H1 L124W_L143F, L1 V133A_S176T_T178L)

Change in KD with respect to wild type (-(log(KD design) - log(KD wt))) [3]: 0.05 | pKd [4]: 9.85
Substance: D3H44 Fab heterodimer, H1L1 of LCCA set 9645 (H: L143E_K145T_Q179E; L: Q124K_T178R)

Change in median values of KD of h1l1 Fab heterodimer compared to wild type (-(log(KD design)-log(KD wt))) [5]: -0.19 log units | pKd [6]: 9.62
Substance: H1L1 Fab heterodimer of LCCA sets 9721, 9720, 9723, 9722, 9725, 9716, 9712 and 9708 (D3H44 Fab, H1 L143E_K145T_S188L, L1 Q124R_Q160K_T178R)

Change in median values of KD of h1l1 Fab heterodimer compared to wild type (-(log(KD design)-log(KD wt))) [1]: 0.07 | pKd [2]: 9.89
Substance: H1L1 Fab heterodimer of LCCA Set # 9068 (D3H44 Fab; H1 F174G, L1 S131T_S176F_T178F)

pKd [7]: 9.80 | change in median KD compared to wild type, -(log(KD design)-log(KD wt)) [8]: 0
Substance: D3H44 Fab heterodimer, H1 Q179R / L1 S131E (H1L1 Fab of LCCA Set # 9980)

H2L2:H2L1 normalized median ratio [9]: 4% | H2L2:H2L1 normalized median ratio [10]: 96% | H2L2:H2L1 normalized median ratio [11]: 4% | H2L2:H2L1 normalized median ratio [12]: 96%
Substance: D3H44 Fab heavy chain Q39R_S186R

Change in median values of KD of h1|1 Fab heterodimer compared to wild type (-(log(KD design)-log(KD wt))) [21]: 0.04 log units | pKd [21]: 9.85
Substance: D3H44 H1L1 Fab heterodimer of LCCA set 9635 (H1 L143E_K145T_Q179D; L1 Q124R_T178R)
